# Measured values published in IntAct's records for PubMed 35152348.
# B1: Proline-serine-threonine phosphatase-interacting protein 1 (Homo sapiens), O43586 (parent)
# chain: MMPQLQFKDAFWCRDFTAHTGYEVLLQRLLDGRKMCKDMEELLRQRAQAEERYGKELVQIARKAGGQTEINSLRASFDSLKQQMENVGSSHIQLALTLREELRSLEEFRERQKEQRKKYEAVMDRVQKSKLSLYKKAMESKKTYEQKCRDADDAEQAFERISANGHQKQVEKSQNKARQCKDSATEAERVYRQSIAQLEKVRAEWEQEHRTTCEAFQLQEFDRLTILRNALWVHSNQLSMQCVKDDELYEEVRLTLEGCSIDADIDSFIQAKSTGTEPPAPVPYQNYYDREVTPLTSSPGIQPSCGMIKRFSGLLHGSPKTTSLAASAASTETLTPTPERNEGVYTAIAVQEIQGNPASPAQEYRALYDYTAQNPDELDLSAGDILEVILEGEDGWWTVERNGQRGFVPGSYLEKL
# partner: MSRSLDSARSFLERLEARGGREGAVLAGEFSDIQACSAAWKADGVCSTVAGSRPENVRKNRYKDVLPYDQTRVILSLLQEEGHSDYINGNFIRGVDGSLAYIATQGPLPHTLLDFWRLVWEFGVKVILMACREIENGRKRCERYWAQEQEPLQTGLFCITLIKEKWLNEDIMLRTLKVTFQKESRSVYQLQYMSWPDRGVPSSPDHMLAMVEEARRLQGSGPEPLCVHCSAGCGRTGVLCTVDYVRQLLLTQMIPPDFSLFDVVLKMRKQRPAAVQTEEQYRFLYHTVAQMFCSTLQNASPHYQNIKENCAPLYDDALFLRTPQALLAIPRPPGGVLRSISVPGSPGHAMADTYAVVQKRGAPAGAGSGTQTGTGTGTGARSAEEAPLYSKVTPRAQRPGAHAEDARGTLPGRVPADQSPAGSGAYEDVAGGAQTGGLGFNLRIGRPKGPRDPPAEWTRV
# B2: Tyrosine-protein phosphatase non-receptor type 22 (Homo sapiens), Q9Y2R2-1 (parent)
# chain: MDQREILQKFLDEAQSKKITKEEFANEFLKLKRQSTKYKADKTYPTTVAEKPKNIKKNRYKDILPYDYSRVELSLITSDEDSSYINANFIKGVYGPKAYIATQGPLSTTLLDFWRMIWEYSVLIIVMACMEYEMGKKKCERYWAEPGEMQLEFGPFSVSCEAEKRKSDYIIRTLKVKFNSETRTIYQFHYKNWPDHDVPSSIDPILELIWDVRCYQEDDSVPICIHCSAGCGRTGVICAIDYTWMLLKDGIIPENFSVFSLIREMRTQRPSLVQTQEQYELVYNAVLELFKRQMDVIRDKHSGTESQAKHCIPEKNHTLQADSYSPNLPKSTTKAAKMMNQQRTKMEIKESSSFDFRTSEISAKEELVLHPAKSSTSFDFLELNYSFDKNADTTMKWQTKAFPIVGEPLQKHQSLDLGSLLFEGCSNSKPVNAAGRYFNSKVPITRTKSTPFELIQQRETKEVDSKENFSYLESQPHDSCFVEMQAQKVMHVSSAELNYSLPYDSKHQIRNASNVKHHDSSALGVYSYIPLVENPYFSSWPPSGTSSKMSLDLPEKQDGTVFPSSLLPTSSTSLFSYYNSHDSLSLNSPTNISSLLNQESAVLATAPRIDDEIPPPLPVRTPESFIVVEEAGEFSPNVPKSLSSAVKVKIGTSLEWGGTSEPKKFDDSVILRPSKSVKLRSPKSELHQDRSSPPPPLPERTLESFFLADEDCMQAQSIETYSTSYPDTMENSTSSKQTLKTPGKSFTRSKSLKILRNMKKSICNSCPPNKPAESVQSNNSSSFLNFGFANRFSKPKGPRNPPPTWNI
# B3: Proline-serine-threonine phosphatase-interacting protein 1 (Homo sapiens), O43586 (parent)
# chain: B1 chain
# partner: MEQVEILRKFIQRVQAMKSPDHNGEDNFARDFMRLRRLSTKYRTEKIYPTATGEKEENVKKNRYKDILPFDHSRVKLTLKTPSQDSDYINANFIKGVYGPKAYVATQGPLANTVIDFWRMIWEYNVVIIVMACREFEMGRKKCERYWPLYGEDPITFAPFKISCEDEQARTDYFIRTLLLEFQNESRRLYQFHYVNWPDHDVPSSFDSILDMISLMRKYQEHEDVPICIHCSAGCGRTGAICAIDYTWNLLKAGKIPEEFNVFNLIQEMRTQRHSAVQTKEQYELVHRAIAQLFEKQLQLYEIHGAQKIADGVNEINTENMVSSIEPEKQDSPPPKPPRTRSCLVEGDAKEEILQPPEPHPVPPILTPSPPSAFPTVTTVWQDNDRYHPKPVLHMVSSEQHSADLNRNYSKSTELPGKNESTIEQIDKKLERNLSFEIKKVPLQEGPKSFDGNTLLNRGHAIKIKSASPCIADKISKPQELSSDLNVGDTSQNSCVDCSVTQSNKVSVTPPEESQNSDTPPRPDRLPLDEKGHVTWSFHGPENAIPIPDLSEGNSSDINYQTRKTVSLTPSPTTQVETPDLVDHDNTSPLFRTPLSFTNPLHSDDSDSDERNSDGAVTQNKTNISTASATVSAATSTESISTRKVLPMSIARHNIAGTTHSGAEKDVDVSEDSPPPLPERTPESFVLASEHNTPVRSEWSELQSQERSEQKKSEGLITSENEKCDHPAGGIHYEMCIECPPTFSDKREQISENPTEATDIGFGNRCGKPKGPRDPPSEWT
# B4: Proline-serine-threonine phosphatase-interacting protein 1 (Homo sapiens), O43586 (parent)
# chain: B1 chain
# partner: B2 chain
# Variants of: B1
# Settings: with ptn18_human PTPN18, Q99952
row,effect of a mutation on the interaction,Variant
1,with no effect,D266N
2,with no effect,T274M

# The remaining lines, values behind:
row,Variant,effect of a mutation on the interaction
1,Q219H,with no effect
2,E257G,with no effect
3,E257K,disrupting interaction strength
4,W232A,disrupting interaction strength
5,R228C,disrupting interaction strength
6,D246N,decreasing interaction strength
7,E250K,disrupting interaction strength
8,E250Q,decreasing interaction strength
9,G258A,with no effect
10,A230T,with no effect

# Variants of: B2
# Settings: with ppip1_human PSTPIP1, O43586
row,Variant,effect of a mutation on the interaction
1,R799A,decreasing interaction strength
2,W805A,decreasing interaction strength

# Variants of: B3
# Settings: with ptn12_human PTPN12, Q05209
row,effect of a mutation on the interaction,Variant
1,with no effect,D266N
2,with no effect,T274M
3,with no effect,G258A

# Continued, variant first:
row,Variant,effect of a mutation on the interaction
1,R228C,disrupting interaction strength
2,E250K,disrupting interaction strength
3,E250Q,decreasing interaction strength
4,Q219H,with no effect
5,W232A,disrupting interaction strength
6,A230T,with no effect
7,E257G,with no effect
8,E257K,disrupting interaction strength
9,D246N,with no effect

# Variants of: B4
# Settings: with PTPN22, Q9Y2R2-1
row,effect of a mutation on the interaction,Variant
1,with no effect,E277D
2,with no effect,Y345C
3,with no effect,G258A
4,with no effect,D266N
5,with no effect,G403E
6,with no effect,G403R
7,with no effect,D289H
8,with no effect,R405C
9,with no effect,V344I
10,with no effect,D384G
11,with no effect,T274M

# More lines, now with the values behind:
row,Variant,effect of a mutation on the interaction
1,W232A,disrupting interaction strength
2,T68M,with no effect
3,E250Q,decreasing interaction strength
4,E250K,disrupting interaction strength
5,A230T,with no effect
6,Q219H,with no effect
7,E257K,decreasing interaction strength
8,E257G,with no effect
9,R52Q,with no effect
10,D246N,decreasing interaction strength
11,V122I,with no effect
12,R228C,disrupting interaction strength

# Variants of: B4
# Settings: with PTPN22, Q9Y2R2-1
# Remark: another data set of the same source
row,Variant,effect of a mutation on the interaction
1,W232A,decreasing interaction strength

# Variants of: B4
# Settings: with PTPN22, Q9Y2R2-1
# Remark: another data set of the same source
row,Variant,effect of a mutation on the interaction
1,E250K,decreasing interaction strength
2,E257G,decreasing interaction strength
3,R228C,decreasing interaction strength
